From PMC4351158 (Structure (London, England : 1993), 2015)
Residue numbers refer to the chain shown, from its start. Names may count otherwise.

B1: H198P/P229A (protein, UniProt P0AEE3 1-355, looked up, variant H198P P229A)
Serine endoprotease DegS: MFVKLLRSVAIGLIVGAILLVAMPSLRSLNPLSTPQFDSTDETPASYNLAVRRAAPAVVNVYNRGLNTNSHNQLEIRTLGSGVIMDQRGYIITNKHVINDADQIIVALQDGRVFEALLVGSDSLTDLAVLKINATGGLPTIPINARRVPHIGDVVLAIGNPYNLGQTITQGIISATGRIGLNPTGRQNFLQTDASINPGNSGGALVNSLGELMGINTLSFDKSNDGETAEGIGFAIPFQLATKIMDKLIRDGRVIRGYIGIGGREIAPLHAQGGGIDQLQGIVVNEVSPDGPAANAGIQVNDLIISVDNKPAISALETMDQVAEIRPGSVIPVVVMRDDKQLTLQVTIQEYPATN
B2: R178A/H198P (protein, UniProt P0AEE3 1-355, looked up, variant R178A H198P)
Serine endoprotease DegS: B1 Serine endoprotease DegS with R178A, A229P
B3: I179A/H198P (protein, UniProt P0AEE3 1-355, looked up, variant I179A H198P)
Serine endoprotease DegS: B1 Serine endoprotease DegS with I179A, A229P
B4: D221A/H198P (protein, UniProt P0AEE3 1-355, looked up, variant D221A H198P)
Serine endoprotease DegS: B1 Serine endoprotease DegS with D221A, A229P
B5: Q187A/H198P (protein, UniProt P0AEE3 1-355, looked up, variant Q187A H198P)
Serine endoprotease DegS: B1 Serine endoprotease DegS with Q187A, A229P
B6: F220A/H198P (protein, UniProt P0AEE3 1-355, looked up, variant F220A H198P)
Serine endoprotease DegS: B1 Serine endoprotease DegS with F220A, A229P
B7: R178A: DegS variant R178A (protein)
chain: RSLNPLSTPQFDSTDETPASYNLAVRRAAPAVVNVYNRGLNTNSHNQLEIRTLGSGVIMDQRGYIITNKHVINDADQIIVALQDGRVFEALLVGSDSLTDLAVLKINATGGLPTIPINARRVPHIGDVVLAIGNPYNLGQTITQGIISATGAIGLNPTGRQNFLQTDASINHGNSGGALVNSLGELMGINTLSFDKSNDGETPEGIGFAIPFQLATKIMDKLIRDGRVIRGYIGIGGREIAPLHAQGGGIDQLQGIVVNEVSPDGPAANAGIQVNDLIISVDNKPAISALETMDQVAEIRPGSVIPVVVMRDDKQLTLQVTIQEYPATN
modifications: left off: His6, N-terminal, state not stated
B8: I179A: DegS variant I179A (protein)
chain: B7 chain with A152R, I153A
modifications: left off: His6, N-terminal, state not stated
B9: D221A: DegS variant D221A (protein)
chain: B7 chain with A152R, D195A
modifications: left off: His6, N-terminal, state not stated
B10: Q187A: DegS variant Q187A (protein)
chain: B7 chain with A152R, Q161A
modifications: left off: His6, N-terminal, state not stated
B11: P229A: DegS variant P229A (protein)
chain: B7 chain with A152R, P203A
modifications: left off: His6, N-terminal, state not stated
B12: F220A: DegS variant F220A (protein)
chain: B7 chain with A152R, F194A
modifications: left off: His6, N-terminal, state not stated
B13: Y162A: DegS variant Y162A (protein)
chain: B7 chain with Y136A, A152R
modifications: left off: His6, N-terminal, state not stated
B14: L164A: DegS variant L164A (protein)
chain: B7 chain with L138A, A152R
modifications: left off: His6, N-terminal, state not stated
B15: P161A: DegS variant P161A (protein)
chain: B7 chain with P135A, A152R
modifications: left off: His6, N-terminal, state not stated
B16: F234A: DegS variant F234A (protein)
chain: B7 chain with A152R, F208A
modifications: left off: His6, N-terminal, state not stated
B17: I232A: DegS variant I232A (protein)
chain: B7 chain with A152R, I206A
modifications: left off: His6, N-terminal, state not stated
B18: E230A: DegS variant E230A (protein)
chain: B7 chain with A152R, E204A
modifications: left off: His6, N-terminal, state not stated
B19: T169A: DegS variant T169A (protein)
chain: B7 chain with T143A, A152R
modifications: left off: His6, N-terminal, state not stated
B20: Q191A: DegS variant Q191A (protein)
chain: B7 chain with A152R, Q165A
modifications: left off: His6, N-terminal, state not stated
B21: N197A: DegS variant N197A (protein)
chain: B7 chain with A152R, N171A
modifications: left off: His6, N-terminal, state not stated
B22: T167V: DegS variant T167V (protein)
chain: B7 chain with T141V, A152R
modifications: left off: His6, N-terminal, state not stated

These molecules were tested on periplasmic domain of RseA (assay: Cleavage of 35S-labeled RseA periplasmic domain by DegS variants). Conditions: H198P background; compared to H198P.
Format: biochemical, E. coli

Molecule | YYF-stimulated cleavage activity, in words
B1 | more active than H198P

Same assay, conditions: H198P background; with YYF; % of H198P parent

Molecule | YYF-stimulated cleavage activity relative to H198P parental enzyme
B2 | 9–24%
B3 | ≥ 65%
B4 | ≥ 65%
B5 | ≥ 65%
B6 | 9–24%

Same assay, conditions: WT background; compared to wild-type DegS

Molecule | YYF-stimulated cleavage activity, in words
B7 | almost no cleavage activity
B8 | reduced YYF-stimulated cleavage activity compared to wild-type DegS
B9 | reduced YYF-stimulated cleavage activity compared to wild-type DegS
B10 | reduced YYF-stimulated cleavage activity compared to wild-type DegS
B11 | more active than wild-type DegS
B12 | almost no cleavage activity

Same assay, conditions: WT background; with YYF; % of wild-type activity

Molecule | YYF-stimulated cleavage activity relative to wild type
B13 | less than 2%
B14 | less than 2%
B15 | less than 2%
B16 | less than 2%
B17 | less than 2%
B18 | ~ 10%
B19 | less than 2%
B20 | less than 2%
B21 | less than 2%
B22 | less than 2%
